# According to paper doi:10.1101/2023.11.29.569239:
# B1: dsRNA I (18-mer/42-mer) (dsRNA)
# RNA 1: ACCGCUGCCGUCGCUCCG
# RNA 2: UUUUUUUUUUUUUUUUUUUUUUUUCGGAGCGACGGCAGCGGU
# Experiments:
# MBP-ΔΔ DDX3X = MBP-ΔΔ DDX3X (UniProt O00571 132-607); assay: EMSA
# MBP-ΔΔ DDX3Y = MBP-ΔΔ DDX3Y (UniProt O15523 130-605); assay: EMSA
# MBP-DDX3X full-length [1] = target: T1, MBP-DDX3X full-length (UniProt O00571 1-662); assay: EMSA
# MBP-DDX3Y full-length [2] = target: T2, MBP-DDX3Y full-length (UniProt O15523 1-660); assay: EMSA
# MBP-DDX3X full-length [3] = target: T1, MBP-DDX3X full-length; assay: single-particle FRET
# MBP-DDX3Y full-length [4] = target: T2, MBP-DDX3Y full-length; assay: single-particle FRET
# T2 sequence (O15523 whole entry): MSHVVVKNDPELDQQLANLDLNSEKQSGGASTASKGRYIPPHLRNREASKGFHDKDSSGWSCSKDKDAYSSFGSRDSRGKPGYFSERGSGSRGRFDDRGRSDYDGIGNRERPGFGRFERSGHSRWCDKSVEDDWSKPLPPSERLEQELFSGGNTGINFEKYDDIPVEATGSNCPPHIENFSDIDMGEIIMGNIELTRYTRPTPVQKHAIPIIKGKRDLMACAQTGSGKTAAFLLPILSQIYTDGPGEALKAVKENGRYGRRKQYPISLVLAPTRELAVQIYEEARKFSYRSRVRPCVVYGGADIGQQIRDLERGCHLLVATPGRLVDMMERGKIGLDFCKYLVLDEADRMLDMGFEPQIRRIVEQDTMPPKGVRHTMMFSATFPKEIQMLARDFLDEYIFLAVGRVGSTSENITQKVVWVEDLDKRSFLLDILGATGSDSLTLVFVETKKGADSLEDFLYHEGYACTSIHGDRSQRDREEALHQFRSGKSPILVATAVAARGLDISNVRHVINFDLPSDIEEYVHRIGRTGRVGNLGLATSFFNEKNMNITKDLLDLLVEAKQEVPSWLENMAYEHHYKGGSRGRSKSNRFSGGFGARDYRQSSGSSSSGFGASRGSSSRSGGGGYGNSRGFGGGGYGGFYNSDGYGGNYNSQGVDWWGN
# T1 sequence (O00571 whole entry): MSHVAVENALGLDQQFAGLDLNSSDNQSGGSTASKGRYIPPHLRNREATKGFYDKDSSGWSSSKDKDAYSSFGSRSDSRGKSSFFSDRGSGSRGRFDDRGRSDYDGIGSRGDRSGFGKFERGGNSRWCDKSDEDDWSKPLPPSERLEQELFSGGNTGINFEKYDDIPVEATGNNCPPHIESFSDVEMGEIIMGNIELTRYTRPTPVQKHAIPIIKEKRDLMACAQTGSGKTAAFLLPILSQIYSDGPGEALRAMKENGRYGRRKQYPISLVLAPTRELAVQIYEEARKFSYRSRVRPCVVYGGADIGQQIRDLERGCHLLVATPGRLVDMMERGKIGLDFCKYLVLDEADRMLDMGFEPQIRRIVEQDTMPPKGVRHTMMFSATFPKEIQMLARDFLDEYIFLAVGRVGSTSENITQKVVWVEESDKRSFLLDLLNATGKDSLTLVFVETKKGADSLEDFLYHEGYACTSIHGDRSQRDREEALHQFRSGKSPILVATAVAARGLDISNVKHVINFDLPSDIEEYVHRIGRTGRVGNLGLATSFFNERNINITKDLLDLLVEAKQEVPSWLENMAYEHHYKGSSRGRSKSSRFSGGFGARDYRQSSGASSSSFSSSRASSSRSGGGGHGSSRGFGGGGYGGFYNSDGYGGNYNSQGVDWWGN
# Chain of MBP-ΔΔ DDX3X (O00571 132-607, stated change not applied): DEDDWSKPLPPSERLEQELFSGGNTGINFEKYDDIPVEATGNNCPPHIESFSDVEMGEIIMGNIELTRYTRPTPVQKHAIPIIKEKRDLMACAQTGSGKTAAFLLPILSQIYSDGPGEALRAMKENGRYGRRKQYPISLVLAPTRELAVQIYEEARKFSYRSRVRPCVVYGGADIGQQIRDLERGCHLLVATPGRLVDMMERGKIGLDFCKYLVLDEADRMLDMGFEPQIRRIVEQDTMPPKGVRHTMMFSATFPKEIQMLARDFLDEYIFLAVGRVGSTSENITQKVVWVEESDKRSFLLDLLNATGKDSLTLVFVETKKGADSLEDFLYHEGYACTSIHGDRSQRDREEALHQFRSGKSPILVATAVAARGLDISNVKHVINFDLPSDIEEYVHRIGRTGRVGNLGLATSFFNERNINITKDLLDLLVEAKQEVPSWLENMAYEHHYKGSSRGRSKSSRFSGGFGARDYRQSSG
# Chain of MBP-ΔΔ DDX3Y (O15523 130-605, stated change not applied): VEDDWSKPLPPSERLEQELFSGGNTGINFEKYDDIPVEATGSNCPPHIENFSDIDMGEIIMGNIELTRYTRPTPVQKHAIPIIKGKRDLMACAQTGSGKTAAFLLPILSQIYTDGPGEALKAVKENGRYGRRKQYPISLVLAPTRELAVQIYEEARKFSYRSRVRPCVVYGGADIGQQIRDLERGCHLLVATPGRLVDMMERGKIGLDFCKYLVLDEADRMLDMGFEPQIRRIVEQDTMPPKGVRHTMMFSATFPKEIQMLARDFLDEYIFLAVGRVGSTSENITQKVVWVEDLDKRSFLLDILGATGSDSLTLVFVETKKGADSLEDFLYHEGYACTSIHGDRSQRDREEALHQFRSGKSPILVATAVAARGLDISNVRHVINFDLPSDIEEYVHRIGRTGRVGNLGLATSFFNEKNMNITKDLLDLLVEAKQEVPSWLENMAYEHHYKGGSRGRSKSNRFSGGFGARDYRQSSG
binder,measurement,setting,value
B1,binding signal,MBP-ΔΔ DDX3X,> 3 fold Kd increase vs full-length
same,binding signal,MBP-ΔΔ DDX3Y,> 3 fold Kd increase vs full-length
same,Kd,MBP-DDX3X full-length [1],519 nM
same,Kd,MBP-DDX3Y full-length [2],884 nM
same,apparent K (half saturation),MBP-DDX3X full-length [3],4.1 ± 2 µM
same,apparent K (half saturation),MBP-DDX3Y full-length [4],3.7 ± 3 µM
